According to US20090105152A1:
Each block holds one binder with its values, some of them ahead of it. Numbered stars: 1 amine (or outer) side, 2 acyl side, 3 side chain; on linkers, the order of the positions; unused ones are H or OH. Square brackets hold non-standard residues; d marks the D form. Primed or numbered codes have the meaning given here. Azetidine3carboxylic = O=C(C1CN([*:1])C1)[*:2]; Pro(trans-4-F) = O=C(O)[C@@H]1C[C@@H](F)CN1; Pic(3) = 3-piperidinecarboxylic acid; Arg(Me) = CNC(=N)NCCC[C@H](N)C(=O)O; Dap(CONH2) = NC(=O)NC[C@H](N)C(=O)O; Hyp = O=C(O)[C@@H]1C[C@@H](O)CN1; d4Pal = N[C@H](Cc1ccncc1)C(=O)O; Aze = O=C(O)[C@@H]1CCN1; 2Abz = Nc1ccccc1C(=O)O; Aib = CC(C)(N)C(=O)O; azaGly = NNC(=O)O

Target: human OT7T175 (metastin receptor) (human) (UniProt Q969F8)
Sequence (Q969F8 whole entry L364H): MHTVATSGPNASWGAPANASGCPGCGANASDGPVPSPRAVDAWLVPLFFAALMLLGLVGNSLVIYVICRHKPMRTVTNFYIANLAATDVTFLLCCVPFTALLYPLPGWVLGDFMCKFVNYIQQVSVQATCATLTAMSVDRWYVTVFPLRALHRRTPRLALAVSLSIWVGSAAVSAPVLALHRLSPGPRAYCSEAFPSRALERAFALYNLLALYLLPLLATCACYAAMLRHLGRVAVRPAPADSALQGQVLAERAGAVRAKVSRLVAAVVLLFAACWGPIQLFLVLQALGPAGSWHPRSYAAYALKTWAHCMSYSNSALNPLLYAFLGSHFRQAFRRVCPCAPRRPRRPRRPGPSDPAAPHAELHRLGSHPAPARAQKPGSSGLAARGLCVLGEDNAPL
Assay: cell-based or functional assay

B2: des(1)-Ac-[D-Tyr2,Gly3,Thr5,AzaGly7,Arg(Me)9,Trp10]MS10 (peptide)
peptide: Ac-[dY]GNTF[azaGly]L[Arg(Me)]W-NH2
SMILES: CNC(=N)NCCC[C@H](NC(=O)[C@H](CC(C)C)NC(=O)NNC(=O)[C@H](Cc1ccccc1)NC(=O)[C@@H](NC(=O)[C@H](CC(N)=O)NC(=O)CNC(=O)[C@@H](Cc1ccc(O)cc1)NC(C)=O)[C@@H](C)O)C(=O)N[C@@H](Cc1c[nH]c2ccccc12)C(N)=O
intracellular Ca ion level-increasing activity [specific activity to Metastin (1-54)] (relative to Metastin (1-54)): 3.1

B3: des(1)-Ac-[D-Tyr2,Aze(2)3,Thr5,AzaGly7,Arg(Me)9,Trp10]MS10 (peptide)
peptide: Ac-[dY][Aze]NTF[azaGly]L[Arg(Me)]W-NH2
SMILES: CNC(=N)NCCC[C@H](NC(=O)[C@H](CC(C)C)NC(=O)NNC(=O)[C@H](Cc1ccccc1)NC(=O)[C@@H](NC(=O)[C@H](CC(N)=O)NC(=O)[C@@H]1CCN1C(=O)[C@@H](Cc1ccc(O)cc1)NC(C)=O)[C@@H](C)O)C(=O)N[C@@H](Cc1c[nH]c2ccccc12)C(N)=O
intracellular Ca ion level-increasing activity [specific activity to Metastin (1-54)] (relative to Metastin (1-54)): 0.8

B4: des(1)-Ac-[D-Tyr2,Abz(2)3,Thr5,AzaGly7,Arg(Me)9,Trp10]MS10 (peptide)
peptide: Ac-[dY][2Abz]NTF[azaGly]L[Arg(Me)]W-NH2
SMILES: CNC(=N)NCCC[C@H](NC(=O)[C@H](CC(C)C)NC(=O)NNC(=O)[C@H](Cc1ccccc1)NC(=O)[C@@H](NC(=O)[C@H](CC(N)=O)NC(=O)c1ccccc1NC(=O)[C@@H](Cc1ccc(O)cc1)NC(C)=O)[C@@H](C)O)C(=O)N[C@@H](Cc1c[nH]c2ccccc12)C(N)=O
intracellular Ca ion level-increasing activity [specific activity to Metastin (1-54)] (relative to Metastin (1-54)): 3.2

B5: des(1)-Ac-[D-Tyr2,Aze(3)3,Thr5,AzaGly7,Arg(Me)9,Trp10]MS10 (peptide)
peptide: Ac-[dY][Azetidine3carboxylic]NTF[azaGly]L[Arg(Me)]W-NH2
SMILES: CNC(=N)NCCC[C@H](NC(=O)[C@H](CC(C)C)NC(=O)NNC(=O)[C@H](Cc1ccccc1)NC(=O)[C@@H](NC(=O)[C@H](CC(N)=O)NC(=O)C1CN(C(=O)[C@@H](Cc2ccc(O)cc2)NC(C)=O)C1)[C@@H](C)O)C(=O)N[C@@H](Cc1c[nH]c2ccccc12)C(N)=O
intracellular Ca ion level-increasing activity [specific activity to Metastin (1-54)] (relative to Metastin (1-54)): 4.1

B6: des(1)-Ac-[D-Tyr2,Aib3,Thr5,AzaGly7,Arg(Me)9,Trp10]MS10 (peptide)
peptide: Ac-[dY][Aib]NTF[azaGly]L[Arg(Me)]W-NH2
SMILES: CNC(=N)NCCC[C@H](NC(=O)[C@H](CC(C)C)NC(=O)NNC(=O)[C@H](Cc1ccccc1)NC(=O)[C@@H](NC(=O)[C@H](CC(N)=O)NC(=O)C(C)(C)NC(=O)[C@@H](Cc1ccc(O)cc1)NC(C)=O)[C@@H](C)O)C(=O)N[C@@H](Cc1c[nH]c2ccccc12)C(N)=O
intracellular Ca ion level-increasing activity [specific activity to Metastin (1-54)] (relative to Metastin (1-54)): 1.5

B7: des(1)-Ac-[D-Tyr2,D-Pya(4)3,Alb4,Thr5,AzaGly7,Arg(Me)9,Trp10]MS10 (peptide)
peptide: Ac-[dY][d4Pal][Dap(CONH2)]TF[azaGly]L[Arg(Me)]W-NH2
SMILES: CNC(=N)NCCC[C@H](NC(=O)[C@H](CC(C)C)NC(=O)NNC(=O)[C@H](Cc1ccccc1)NC(=O)[C@@H](NC(=O)[C@H](CNC(N)=O)NC(=O)[C@@H](Cc1ccncc1)NC(=O)[C@@H](Cc1ccc(O)cc1)NC(C)=O)[C@@H](C)O)C(=O)N[C@@H](Cc1c[nH]c2ccccc12)C(N)=O
intracellular Ca ion level-increasing activity [specific activity to Metastin (1-54)] (relative to Metastin (1-54)): 2.6

B8: des(1)-Ac-[D-Tyr2,D-Trp3,D-Pro5,AzaGly7,Arg(Me)9,Trp10]MS10 (peptide)
peptide: Ac-[dY][dW]N[dP]F[azaGly]L[Arg(Me)]W-NH2
SMILES: CNC(=N)NCCC[C@H](NC(=O)[C@H](CC(C)C)NC(=O)NNC(=O)[C@H](Cc1ccccc1)NC(=O)[C@H]1CCCN1C(=O)[C@H](CC(N)=O)NC(=O)[C@@H](Cc1c[nH]c2ccccc12)NC(=O)[C@@H](Cc1ccc(O)cc1)NC(C)=O)C(=O)N[C@@H](Cc1c[nH]c2ccccc12)C(N)=O
intracellular Ca ion level-increasing activity [specific activity to Metastin (1-54)] (relative to Metastin (1-54)): 3.8

The remaining lines, values ahead:

intracellular Ca ion level-increasing activity [specific activity to Metastin (1-54)] (relative to Metastin (1-54)): 0.7
B1: des(1)-Ac-[D-Tyr2,Pro(4F)3,Thr5,AzaGly7,Arg(Me)9,Trp10]MS10 (peptide)
peptide: Ac-[dY][Pro(trans-4-F)]NTF[azaGly]L[Arg(Me)]W-NH2
SMILES: CNC(=N)NCCC[C@H](NC(=O)[C@H](CC(C)C)NC(=O)NNC(=O)[C@H](Cc1ccccc1)NC(=O)[C@@H](NC(=O)[C@H](CC(N)=O)NC(=O)[C@@H]1C[C@@H](F)CN1C(=O)[C@@H](Cc1ccc(O)cc1)NC(C)=O)[C@@H](C)O)C(=O)N[C@@H](Cc1c[nH]c2ccccc12)C(N)=O

intracellular Ca ion level-increasing activity [specific activity to Metastin (1-54)] (relative to Metastin (1-54)): 1.1
Binder: Ac-Y[Hyp]NTF[azaGly]L[Arg(Me)]W-NH2 [des(1)-Ac-[Tyr2,Hyp3,Thr5,AzaGly7,Arg(Me)9,Trp10]MS10]

intracellular Ca ion level-increasing activity [specific activity to Metastin (1-54)] (relative to Metastin (1-54)): 2.2
Binder: Ac-[dY][Pic(3)]NTF[azaGly]L[Arg(Me)]W-NH2 [des(1)-Ac-[D-Tyr2,Pic(3)3,Thr5,AzaGly7,Arg(Me)9,Trp10]MS10]

intracellular Ca ion level-increasing activity [specific activity to Metastin (1-54)] (relative to Metastin (1-54)): 2
Binder: Ac-[dY][Hyp]NTF[azaGly]L[Arg(Me)]W-NH2 [des(1)-Ac-[D-Tyr2,Hyp3,Thr5,AzaGly7,Arg(Me)9,Trp10]MS10]
